In patent US20150203577A1 (Chugai, published 2015):
Several values for one entry are separate records, joined by “and”; a condition that tells them apart may be missing. Equal entries are not always repeated.

T1: mouse FcγRII extracellular domain, C-terminally His-tagged (mouse, UniProt P08101 30-210)
T1 construct: the whole entry is named; also called mFcγRII; mFcgRII
T1 sequence: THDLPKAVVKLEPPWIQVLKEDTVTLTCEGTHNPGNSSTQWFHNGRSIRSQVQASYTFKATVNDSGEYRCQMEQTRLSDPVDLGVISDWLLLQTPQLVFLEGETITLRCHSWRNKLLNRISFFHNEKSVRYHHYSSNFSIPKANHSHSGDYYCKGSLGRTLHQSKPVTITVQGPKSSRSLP

T2: mouse FcγRIII extracellular domain, C-terminally His-tagged (mouse, UniProt P08508 31-215)
T2 construct: the whole entry is named; also called mFcγRIII; mFcgRIII
T2 chain: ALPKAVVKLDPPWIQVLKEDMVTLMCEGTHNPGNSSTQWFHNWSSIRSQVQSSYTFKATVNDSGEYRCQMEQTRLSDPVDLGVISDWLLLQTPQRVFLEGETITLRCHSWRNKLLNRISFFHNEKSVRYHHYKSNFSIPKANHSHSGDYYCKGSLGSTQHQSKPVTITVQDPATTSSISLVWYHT

T3: mouse FcγRII (mouse, UniProt P08101 30-210)
T3 construct: Extracellular domain with C-terminal His tag, made in FreeStyle 293 cells; also called mFcγRII; mFcgRII
T3 sequence: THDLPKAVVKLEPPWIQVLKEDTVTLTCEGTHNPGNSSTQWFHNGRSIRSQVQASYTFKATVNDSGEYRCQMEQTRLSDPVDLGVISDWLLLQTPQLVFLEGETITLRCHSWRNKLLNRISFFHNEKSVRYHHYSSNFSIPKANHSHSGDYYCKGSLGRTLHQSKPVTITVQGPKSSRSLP

T4: mouse FcγRIII (mouse, UniProt P08508 31-215)
T4 construct: Extracellular domain with C-terminal His tag, made in FreeStyle 293 cells; also called mFcγRIII; mFcgRIII
T4 chain: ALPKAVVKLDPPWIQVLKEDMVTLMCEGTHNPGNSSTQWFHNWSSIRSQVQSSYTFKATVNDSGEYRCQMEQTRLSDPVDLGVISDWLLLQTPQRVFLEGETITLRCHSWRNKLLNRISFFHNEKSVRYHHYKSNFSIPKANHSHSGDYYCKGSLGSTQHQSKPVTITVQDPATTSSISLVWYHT


Tests used:
[1] = target: T1, mouse FcγRII extracellular domain, …; assay: SPR Biacore T200, KD ratio
Protocol: (§1) Each altered antibody was analyzed for its interaction with each Fcγ receptor prepared above using Biacore T100 (GE Healthcare Japan Corp.), Biacore T200 (GE Healthcare Japan Corp.), Biacore A100, or Biacore 4000. The running buffer used was HBS-EP+ (GE Healthcare Japan Corp.). The assay temperature was set to 25° C. The sensor chips used were chips prepared by immobilizing Protein L (ACTIGEN or BioVision) onto Series S Sensor Chip CM5 (GE Healthcare Japan Corp.) or Series S Sensor Chip CM4 (GE Healthcare Japan Corp.) by the amine coupling method.
(§2) In order to calculate the KD value of each altered antibody for FcγR, kinetic analysis was conducted according to the following method: first, the antibody of interest was captured onto any of these chips and allowed to interact with mFcγR diluted with a running buffer. For the obtained sensorgram, the assay results were globally fit into the 1:1 Langmuir binding model using Biacore Evaluation Software to calculate an association rate constant ka (L/mol/s) and a dissociation rate constant kd (1/s). From these values, the dissociation constant KD (mol/L) was calculated.

[2] = target: T2, mouse FcγRIII extracellular domain, …; assay: SPR Biacore T200, KD ratio
Protocol: as §1, §2

mouse FcγRII = target: T3, mouse FcγRII; assay: SPR (Biacore), antibody captured on Protein L
Protocol: as §1, §2

mouse FcγRIII = target: T4, mouse FcγRIII; assay: SPR (Biacore), antibody captured on Protein L
Protocol: as §1, §2

Binder	relative mFcγRII-binding activity (mIgG1 = 1) [1] [fold]	relative mFcγRIII-binding activity (mIgG1 = 1) [2] [fold]	Kd (mouse FcγRII)	Kd (mouse FcγRIII)
H237-MB623/MRAL-k0 (antibody, mouse IgG1, kappa, copies: 2 + 2) heavy: QVQLQESGPGLVKPSETLSLTCAVSGHSISHDHAWSWVRQPPGEGLEWIGFISYSGITNYNPSLQGRVTISRDNSKNTLYLQMNSLRAEDTAVYYCARSLARTTAMDYWGEGTLVTVSSAKTTPPSVYPLAPGSAAQTNSMVTLGCLVKGYFPEPVTVTWNSGSLSSGVHTFPAVLQSDLYTLSSSVTVPSSTWPSETVTCNVAHPASSTKVDKKIVPRDCGCKPCICEAYEVELVFIFPPKPKDVLTITLTPKVTCVVVDISKDDPEVQFSWFVDDVEVHTAQTQPREEQFNSTFRSVSELPIMHQDWLNGKEFKCRVNSAAFPAPIEKTISKTKGRPKAPQVYTIPPPKEQMAKDKVSLTCMITDFFPEDITVEWQWNGQPAENYKNTQPIMDTDGSYFVYSKLNVQKSNWEAGNTFTCSVLHEGLHNHHTEKSLSHSPGK light: not shown	0.53	0.09		
H237-MB627/MRAL-k0 (antibody, mouse IgG1, kappa, copies: 2 + 2) heavy: QVQLQESGPGLVKPSETLSLTCAVSGHSISHDHAWSWVRQPPGEGLEWIGFISYSGITNYNPSLQGRVTISRDNSKNTLYLQMNSLRAEDTAVYYCARSLARTTAMDYWGEGTLVTVSSAKTTPPSVYPLAPGSAAQTNSMVTLGCLVKGYFPEPVTVTWNSGSLSSGVHTFPAVLQSDLYTLSSSVTVPSSTWPSETVTCNVAHPASSTKVDKKIVPRDCGCKPCICEVYEVELVFIFPPKPKDVLTITLTPKVTCVVVDISKDDPEVQFSWFVDDVEVHTAQTQPREEQFNSTFRSVSELPIMHQDWLNGKEFKCRVNSAAFPAPIEKTISKTKGRPKAPQVYTIPPPKEQMAKDKVSLTCMITDFFPEDITVEWQWNGQPAENYKNTQPIMDTDGSYFVYSKLNVQKSNWEAGNTFTCSVLHEGLHNHHTEKSLSHSPGK light: not shown	0.32	0.09		
H237-MB628/MRAL-k0 (antibody, mouse IgG1, kappa, copies: 2 + 2) heavy: QVQLQESGPGLVKPSETLSLTCAVSGHSISHDHAWSWVRQPPGEGLEWIGFISYSGITNYNPSLQGRVTISRDNSKNTLYLQMNSLRAEDTAVYYCARSLARTTAMDYWGEGTLVTVSSAKTTPPSVYPLAPGSAAQTNSMVTLGCLVKGYFPEPVTVTWNSGSLSSGVHTFPAVLQSDLYTLSSSVTVPSSTWPSETVTCNVAHPASSTKVDKKIVPRDCGCKPCICEPAEVELVFIFPPKPKDVLTITLTPKVTCVVVDISKDDPEVQFSWFVDDVEVHTAQTQPREEQFNSTFRSVSELPIMHQDWLNGKEFKCRVNSAAFPAPIEKTISKTKGRPKAPQVYTIPPPKEQMAKDKVSLTCMITDFFPEDITVEWQWNGQPAENYKNTQPIMDTDGSYFVYSKLNVQKSNWEAGNTFTCSVLHEGLHNHHTEKSLSHSPGK light: not shown	2.2	0.06		
H237-MB594/MRAL-k0 (antibody, mouse IgG1, kappa, copies: 2 + 2) heavy: QVQLQESGPGLVKPSETLSLTCAVSGHSISHDHAWSWVRQPPGEGLEWIGFISYSGITNYNPSLQGRVTISRDNSKNTLYLQMNSLRAEDTAVYYCARSLARTTAMDYWGEGTLVTVSSAKTTPPSVYPLAPGSAAQTNSMVTLGCLVKGYFPEPVTVTWNSGSLSSGVHTFPAVLQSDLYTLSSSVTVPSSTWPSETVTCNVAHPASSTKVDKKIVPRDCGCKPCICEVPEEESVFIFPPKPKDVLTITLTPKVTCVVVDISKDDPEVQFSWFVDDVEVHTAQTQPREEQFNSTFRSVSELPIMHQDWLNGKEFKCRVNSAAFPAPIEKTISKTKGRPKAPQVYTIPPPKEQMAKDKVSLTCMITDFFPEDITVEWQWNGQPAENYKNTQPIMDTDGSYFVYSKLNVQKSNWEAGNTFTCSVLHEGLHNHHTEKSLSHSPGK light: not shown			115 nM and 250 nM	3230 nM and 9030 nM
H237-MB629/MRAL-k0 (antibody, mouse IgG1, kappa, copies: 2 + 2) heavy: QVQLQESGPGLVKPSETLSLTCAVSGHSISHDHAWSWVRQPPGEGLEWIGFISYSGITNYNPSLQGRVTISRDNSKNTLYLQMNSLRAEDTAVYYCARSLARTTAMDYWGEGTLVTVSSAKTTPPSVYPLAPGSAAQTNSMVTLGCLVKGYFPEPVTVTWNSGSLSSGVHTFPAVLQSDLYTLSSSVTVPSSTWPSETVTCNVAHPASSTKVDKKIVPRDCGCKPCICIPAEVELVFIFPPKPKDVLTITLTPKVTCVVVDISKDDPEVQFSWFVDDVEVHTAQTQPREEQFNSTFRSVSELPIMHQDWLNGKEFKCRVNSAAFPAPIEKTISKTKGRPKAPQVYTIPPPKEQMAKDKVSLTCMITDFFPEDITVEWQWNGQPAENYKNTQPIMDTDGSYFVYSKLNVQKSNWEAGNTFTCSVLHEGLHNHHTEKSLSHSPGK light: not shown	0.38	0.04		
H237-MB625/MRAL-k0 (antibody, mouse IgG1, kappa, copies: 2 + 2) heavy: QVQLQESGPGLVKPSETLSLTCAVSGHSISHDHAWSWVRQPPGEGLEWIGFISYSGITNYNPSLQGRVTISRDNSKNTLYLQMNSLRAEDTAVYYCARSLARTTAMDYWGEGTLVTVSSAKTTPPSVYPLAPGSAAQTNSMVTLGCLVKGYFPEPVTVTWNSGSLSSGVHTFPAVLQSDLYTLSSSVTVPSSTWPSETVTCNVAHPASSTKVDKKIVPRDCGCKPCICENYEVELVFIFPPKPKDVLTITLTPKVTCVVVDISKDDPEVQFSWFVDDVEVHTAQTQPREEQFNSTFRSVSELPIMHQDWLNGKEFKCRVNSAAFPAPIEKTISKTKGRPKAPQVYTIPPPKEQMAKDKVSLTCMITDFFPEDITVEWQWNGQPAENYKNTQPIMDTDGSYFVYSKLNVQKSNWEAGNTFTCSVLHEGLHNHHTEKSLSHSPGK light: not shown	0.67	0.12		
H237-MB624/MRAL-k0 (antibody, mouse IgG1, kappa, copies: 2 + 2) heavy: QVQLQESGPGLVKPSETLSLTCAVSGHSISHDHAWSWVRQPPGEGLEWIGFISYSGITNYNPSLQGRVTISRDNSKNTLYLQMNSLRAEDTAVYYCARSLARTTAMDYWGEGTLVTVSSAKTTPPSVYPLAPGSAAQTNSMVTLGCLVKGYFPEPVTVTWNSGSLSSGVHTFPAVLQSDLYTLSSSVTVPSSTWPSETVTCNVAHPASSTKVDKKIVPRDCGCKPCICEDYEVELVFIFPPKPKDVLTITLTPKVTCVVVDISKDDPEVQFSWFVDDVEVHTAQTQPREEQFNSTFRSVSELPIMHQDWLNGKEFKCRVNSAAFPAPIEKTISKTKGRPKAPQVYTIPPPKEQMAKDKVSLTCMITDFFPEDITVEWQWNGQPAENYKNTQPIMDTDGSYFVYSKLNVQKSNWEAGNTFTCSVLHEGLHNHHTEKSLSHSPGK light: not shown	0.8	0.1		
H237-MB630/MRAL-k0 (antibody, mouse IgG1, kappa, copies: 2 + 2) heavy: QVQLQESGPGLVKPSETLSLTCAVSGHSISHDHAWSWVRQPPGEGLEWIGFISYSGITNYNPSLQGRVTISRDNSKNTLYLQMNSLRAEDTAVYYCARSLARTTAMDYWGEGTLVTVSSAKTTPPSVYPLAPGSAAQTNSMVTLGCLVKGYFPEPVTVTWNSGSLSSGVHTFPAVLQSDLYTLSSSVTVPSSTWPSETVTCNVAHPASSTKVDKKIVPRDCGCKPCICEPNEVELVFIFPPKPKDVLTITLTPKVTCVVVDISKDDPEVQFSWFVDDVEVHTAQTQPREEQFNSTFRSVSELPIMHQDWLNGKEFKCRVNSAAFPAPIEKTISKTKGRPKAPQVYTIPPPKEQMAKDKVSLTCMITDFFPEDITVEWQWNGQPAENYKNTQPIMDTDGSYFVYSKLNVQKSNWEAGNTFTCSVLHEGLHNHHTEKSLSHSPGK light: not shown	14.3	0.25		
H237-MB645/MRAL-k0 (antibody, mouse IgG1, kappa, copies: 2 + 2) heavy: QVQLQESGPGLVKPSETLSLTCAVSGHSISHDHAWSWVRQPPGEGLEWIGFISYSGITNYNPSLQGRVTISRDNSKNTLYLQMNSLRAEDTAVYYCARSLARTTAMDYWGEGTLVTVSSAKTTPPSVYPLAPGSAAQTNSMVTLGCLVKGYFPEPVTVTWNSGSLSSGVHTFPAVLQSDLYTLSSSVTVPSSTWPSETVTCNVAHPASSTKVDKKIVPRDCGCKPCICEVYEVEYVFIFPPKPKDVLTITLTPKVTCVVVDISKDDPEVQFSWFVDDVEVHTAQTQPREEQFNSTFRSVSELPIMHQDWLNGKEFKCRVNSAAFPAPIEKTISKTKGRPKAPQVYTIPPPKEQMAKDKVSLTCMITDFFPEDITVEWQWNGQPAENYKNTQPIMDTDGSYFVYSKLNVQKSNWEAGNTFTCSVLHEGLHNHHTEKSLSHSPGK light: not shown			180 nM and 307 nM	1420 nM and 2360 nM
H237-MB626/MRAL-k0 (antibody, mouse IgG1, kappa, copies: 2 + 2) heavy: QVQLQESGPGLVKPSETLSLTCAVSGHSISHDHAWSWVRQPPGEGLEWIGFISYSGITNYNPSLQGRVTISRDNSKNTLYLQMNSLRAEDTAVYYCARSLARTTAMDYWGEGTLVTVSSAKTTPPSVYPLAPGSAAQTNSMVTLGCLVKGYFPEPVTVTWNSGSLSSGVHTFPAVLQSDLYTLSSSVTVPSSTWPSETVTCNVAHPASSTKVDKKIVPRDCGCKPCICETYEVELVFIFPPKPKDVLTITLTPKVTCVVVDISKDDPEVQFSWFVDDVEVHTAQTQPREEQFNSTFRSVSELPIMHQDWLNGKEFKCRVNSAAFPAPIEKTISKTKGRPKAPQVYTIPPPKEQMAKDKVSLTCMITDFFPEDITVEWQWNGQPAENYKNTQPIMDTDGSYFVYSKLNVQKSNWEAGNTFTCSVLHEGLHNHHTEKSLSHSPGK light: not shown	0.81	0.12		
